These results are taken from PMC1092277.

The target in series [1] is GST-Pax6 HD (wild type) (zebrafish). Nature of the series: pull-down.
Series [2] deals with GST-Pax6 HD R44A/R53A/R57A (zebrafish). Description: pull-down.
Series [3] deals with GST-Chx10 HD R44A (murine). Nature of the series: pull-down.
Series [4] concerns the target GST-Pax6 HD R57A (zebrafish, UniProt P26630 229-288, R285A). Description: EMSA. A general note: In EMSA bound probe runs differently from free probe, usually more slowly.
The target of series [5] is GST-Pax6 HD R58A (zebrafish, UniProt P26630 229-288, R286A). Nature of the series: EMSA.
Sequence of GST-Pax6 HD R58A (P26630 229-288 R286A): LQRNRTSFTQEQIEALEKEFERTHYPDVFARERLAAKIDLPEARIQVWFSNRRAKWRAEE
The target of series [6] is GST-Pax6 HD N51Q (zebrafish, UniProt P26630 229-288, N279Q). Nature of the series: EMSA.
Sequence of GST-Pax6 HD N51Q (P26630 229-288 N279Q): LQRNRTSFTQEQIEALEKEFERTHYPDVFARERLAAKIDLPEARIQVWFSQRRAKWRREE
Series [7] has as its target GST-Pax6 HD R44A (zebrafish, UniProt P26630 229-288, R272A). Description: EMSA.
Series [8] deals with GST-Chx10 HD R57A (mouse, UniProt Q61412 148-207, R204A). Description: EMSA.
Sequence of GST-Chx10 HD R57A (Q61412 148-207 R204A): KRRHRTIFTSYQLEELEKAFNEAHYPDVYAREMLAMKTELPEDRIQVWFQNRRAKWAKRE
The target of series [9] is GST-Pax6 HD R53A (zebrafish, UniProt P26630 229-288, R281A). Nature of the series: EMSA.
Sequence of GST-Pax6 HD R53A (P26630 229-288 R281A): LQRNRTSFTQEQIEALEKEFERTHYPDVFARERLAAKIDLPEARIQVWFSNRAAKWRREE
For series [10], the target named is GST-Chx10 HD R53A (mouse, UniProt Q61412 148-207, R200A). Description: EMSA.
Sequence of GST-Chx10 HD R53A (Q61412 148-207 R200A): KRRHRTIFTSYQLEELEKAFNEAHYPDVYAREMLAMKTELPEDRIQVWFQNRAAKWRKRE
In series [11] the target is GST-Chx10 HD Q50A (mouse, UniProt Q61412 148-207, Q197A). Nature of the series: EMSA.
Sequence of GST-Chx10 HD Q50A (Q61412 148-207 Q197A): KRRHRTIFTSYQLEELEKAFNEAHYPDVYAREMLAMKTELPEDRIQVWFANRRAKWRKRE

Sequence of GST-Pax6 HD R57A (P26630 229-288 R285A): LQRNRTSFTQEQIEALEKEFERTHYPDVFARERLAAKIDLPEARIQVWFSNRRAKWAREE
Sequence of GST-Pax6 HD R44A (P26630 229-288 R272A): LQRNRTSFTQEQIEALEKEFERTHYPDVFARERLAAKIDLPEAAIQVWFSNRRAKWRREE

Consider Pax6ΔHD(E112A/E120A/E128A), for which, in series [1], the percent residual binding was determined as 15%.
For Pax6ΔHD(E101A/E112A/E120A/E128A), in series [1], the percent binding turned out to be 11%.
Pax6ΔHD (in vitro translated) came in with a percent binding compared with the wild-type HD in series [2] below 10%. In [3], the percent binding was found to be 50%.
In [1], Pax6ΔHD(E112A/E120A/D123A/E128A) yielded a percent binding of 5%.

B1: HDp3 (dsDNA)
DNA 1: GATCCTCTAGATAATGCGATTAGCGTAG
DNA 2: GATCCTACGCTAATCGCATTATCTAGAG
As for B1, the binding result in series [4] is on record as “binds”; in series [5] it was “binds”; in series [6], “no binding”; in series [7] it was “no binding”; in [8], “binds”; in series [9], “no binding”. Further, the binding result is “no binding” in [10] and “binds” in series [11].
